Results from paper PMC11024197 (2024).

T1: PEX14 NTD (1-104) (human, UniProt O75381 1-104)
T1 chain: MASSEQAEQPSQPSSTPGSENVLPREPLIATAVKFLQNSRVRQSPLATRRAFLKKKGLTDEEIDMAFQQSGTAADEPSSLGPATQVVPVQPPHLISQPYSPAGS


Biological target: T1, PEX14 NTD (1-104)
Test: ITC

Binder | Kd [µM]
ALSENWAQEFLAAGD [PEX5 W1 peptide] | 0.072
AQAEQWAAEFIQQQG [PEX5 W5 peptide] | 0.021
